# Source: patent US20220227827A1 (DINGFU BIOTARGET, published 2022)
# B1: Human IL10R1 (receptor)
# chain: HGTELPSPPSVWFEAEFFHHILHWTPIPNQSESTCYEVALLRYGIESWNSISNCSQTLSYDLTAVTLDLYHSNGYRARVRAVDGSRHSNWTVTNTRFSVDEVTLTVGSVNLEIHNGFILGKIQLPRPKMAPANDTYESIFSHFREYEIAIRKVPGNFTFTHKKVKHENFSLLTSGEVGEFCVQVKPSVASRSNKGMWSKEECISLTRQYFTVTN
# notes: Bought recombinant protein coated on the ELISA plate; also called hIL10R1; human IL10R1 proteins
# B2: reverse-(IL10)2-Fc9-a (Fc fusion)
# chain 1: EPKSSDKTHTCPPCPAPELLGGPSVFLFPPKPKDTLMISRTPEVTCVVVDVSHEDPEVKFNWYVDGVEVHNAKTKPREEQYNSTYRVVSVLTVLHQDWLNGKEYKCKVSNKALPAPIEKTISKAKGQPREPQVYTLPPSRDELTKNQVSLSCGVKGFYPSDIAVEWESNGQPENNYKTTPPVLDSDGSFKLASKLTVDKSRWQQGNVFSCSVMHEALHNHYTQKSLSLSPGKGGGGSGGGGSGGGGSSPGQGTQSENSCTHFPGNLPNMLRDLRDAFSRVKTFFQMKDQLDNLLLKESLLEDFKGYLGCQALSEMIQFYLEEVMPQAENQDPDIKAHVNSLGENLKTLRLRLRRCHRFLPCENKSKAVEQVKNAFNKLQEKGIYKAMSEFDIFINYIEAYMTMKIRNGGGGSGGGGSGGGGSSPGQGTQSENSCTHFPGNLPNMLRDLRDAFSRVKTFFQMKDQLDNLLLKESLLEDFKGYLGCQALSEMIQFYLEEVMPQAENQDPDIKAHVNSLGENLKTLRLRLRRCHRFLPCENKSKAVEQVKNAFNKLQEKGIYKAMSEFDIFINYIEAYMTMKIRN
# chain 2: DKTHTCPPCPAPELLGGPSVFLFPPKPKDTLMISRTPEVTCVVVDVSHENPEVKFNWYVDGVEVHNAKTKPREEQYNSTYRVVSVLTVLHQDWLNGKEYKCKVSNKALPAPIEKTISKAKGQPREPQVYTLPPSRDELTKNQVSLWCLVKGFYPSDIAVEWESNGQPENNYKTTPPVLDSDGSFFLYSALTVDKSRWQQGNVFSCSVMHEALHNHYTQKSLSLSPGK
# notes: purified by protein A only; also called proteinaceous heterodimer of Group C
# Tests used:
# Erb-(IL10)2 = assay: ELISA, human IL10R1 coated
# Human IL10R1 = biological target: B1; assay: ELISA, human IL10R1 coated at 5 ug/mL, detection with goat anti-hIgG-HRP
# Experimental: Human IL10R1 (R&D, 9100-R1-050) was diluted to 5 μg/mL with coating buffer (50 mM Na₂CO₃, NaHCO₃ pH 9.6), 100 μL/well, overnight at 4° C. After washing, the plates were sealed with 3% BSA-PBS for 1 h at 37° C. The heterodimer proteins of the present disclosure were respectively diluted from 2000 ng/mL and were then diluted 2-fold to a total of 11 concentrations, with the diluent (1% BSA-PBS) as a control, and incubated for 2 h at 37° C. Goat anti-hIgG-HRP (Sigma, A0170) was added and incubated for 1 h at 37° C. The soluble one-component TMB substrate developing solution was added, and the developing was performed in dark at room temperature for 5-10 min. 2N H₂SO₄ 50 μL/well was added to terminate the color development reaction.
Binder,binding result (Erb-(IL10)2),EC50 (Human IL10R1)
B1,binds,–
B2,–,0.0123 mg/L
